Results on one molecule are retold here after US20050144671A1 (ARIZONA BD OF REGENTS BEHALF OF UNIV OF ARIZONA, published 2005).

This test addresses T1, S-tag-ABI2 (full-length ABI2 cloned in pCITE4a, in vitro translated) (UniProt O04719 1-423).
T1 construct: also called S-tagged ABI2; not shown: S-tag encoded by pCITE4a
T1 sequence (looked up): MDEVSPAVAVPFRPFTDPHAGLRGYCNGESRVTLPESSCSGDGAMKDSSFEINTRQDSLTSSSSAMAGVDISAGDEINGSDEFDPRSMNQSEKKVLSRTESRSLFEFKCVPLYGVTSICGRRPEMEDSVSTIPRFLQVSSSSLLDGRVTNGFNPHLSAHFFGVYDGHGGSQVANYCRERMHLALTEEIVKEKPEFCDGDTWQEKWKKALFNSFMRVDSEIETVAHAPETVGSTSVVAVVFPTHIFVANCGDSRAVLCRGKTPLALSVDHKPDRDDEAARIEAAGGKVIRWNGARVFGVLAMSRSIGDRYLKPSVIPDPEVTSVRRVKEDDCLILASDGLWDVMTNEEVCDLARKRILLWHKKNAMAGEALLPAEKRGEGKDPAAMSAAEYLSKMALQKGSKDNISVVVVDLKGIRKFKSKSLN
Put plainly: in vitro S-tag pull-down of 35S-labeled Snow1. As for the experimental part: In-vitro pull down assay: In-vitro pull-down assays were conducted to confirm the physical interaction of Snow1 and Ice1. Full-length snow1 cloned in pGEM-T easy and AtMyb79 (cloned in EcoR I and Xho I sites of pBCSK Stratagene) were used. Full-length Ice1 and ABI2 were cloned in EcoRI/SalI and NcoI/EcoRI sites of pCITE4a. 2 μg each of the linearized plasmid were in vitro transcribed using Megascript T7 RNA polymerase kit (Ambion). 10 μg of the purified transcript of snow1 and AtMyb79 were in vitro translated using Flexi Rabbit Reticulocyte system (Promega) in presence of ³⁵S-methionine. S-tag-Ice1 and S-tag-ABI2 transcripts were translated in absence of ³⁵S-methionine and their proteins were purified using S-tag purification kit (Novagen) as per the manufacturer's instructions. S-Tag Ice1 and S-tag ABI2 bound on the S-Tag slurry were used to pull down ³⁵S-labeled proteins. In another experiment ³⁵S-labeled S-tag Ice was produced and was used for pull-down using either GST-Snow1 or GST-Myb79 proteins. Pull-down assays were conducted as described (Haftler et al 2000).

B1: 35S-labeled Snow1 (full-length snow1 in pGEM-T easy, in vitro transcribed and translated) (other)
chain: MGRAPCCEKMGLKRGPWTPEEDQILVSFILNHGHSNWRALPKQAGLLRCGKSCRLRWMNYLKPDIKRGNFTKEEEDAIISLHQILGNRWSAIAAKLPGRTDNEIKNVWHTHLKKRLEDYQPAKPKTSNKKKGTKPKSESVITSSNSTRSESELADSSNPSGESLFSTSPSTSEVSSMTLISHDGYSNEINMDNKPGDISTIDQECVSFETFGADIDESFWKETLYSQDEHNYVSNDLEVAGLVEIQQEFQNLGSANNEMIFDSEMELLVRCIGICE
modifications: 35S-methionine label
On to B1, for which the binding result is reported as “no binding”.
